In PMC11140114, “Nanobodies as novel tools to monitor the mitochondrial fission factor Drp1” (Life Science Alliance, 2024):

Key:
[1] = target: recombinant human dynamin-related protein 1 (Drp1), isoform 1 (Homo sapiens, isoform 1, UniProt O00429)
[2] = target: T1, GFP-labelled Drp1 deletion construct GTPase-MD (Homo sapiens, UniProt O00429); test: pull-down; domain mapping: D7 or D63 nanotrap (Nb on NHS-sepharose) incubated overnight at 4°C with soluble protein fractions of HEK293 cells transiently expressing GFP-labelled Drp1 constructs; immunoblot with anti-GFP; details: one partner purified
T1 construct: Drp1 (DNM1L), human; source: HEK293, transiently transfected, soluble protein fraction

[3] = target: T2, GFP-labelled Drp1 deletion construct GTPase-MD-VD (Homo sapiens, UniProt O00429); test: as above; details: one partner purified
T2 construct: Drp1 (DNM1L), human; source: HEK293, transiently transfected, soluble protein fraction

[4] = target: T3, GFP-labelled Drp1 deletion construct GTPase (Homo sapiens, UniProt O00429); test: as above; details: one partner purified
T3 construct: Drp1 (DNM1L), human; also called N-terminal GTPase domain; source: HEK293, transiently transfected, soluble protein fraction

[5] = target: T4, Drp1 isoform 2, endogenous in HeLa cells (Homo sapiens (HeLa), UniProt O00429-3, strain); test: affinity purification with mass spectrometry; D7 and D63 nanotraps against GFP-Trap, soluble protein fractions of HEK293, HeLa and U2OS cells, three replicates; label-free quantification; Drp1 captured by the immobilised Nb; details: one partner purified
T4 construct: also called isoform 2 of Drp1; source: endogenous, HeLa soluble protein fraction

recombinant human dynamin-related protein 1 (Drp1), isoform 1, sequence (O00429 whole entry, canonical isoform): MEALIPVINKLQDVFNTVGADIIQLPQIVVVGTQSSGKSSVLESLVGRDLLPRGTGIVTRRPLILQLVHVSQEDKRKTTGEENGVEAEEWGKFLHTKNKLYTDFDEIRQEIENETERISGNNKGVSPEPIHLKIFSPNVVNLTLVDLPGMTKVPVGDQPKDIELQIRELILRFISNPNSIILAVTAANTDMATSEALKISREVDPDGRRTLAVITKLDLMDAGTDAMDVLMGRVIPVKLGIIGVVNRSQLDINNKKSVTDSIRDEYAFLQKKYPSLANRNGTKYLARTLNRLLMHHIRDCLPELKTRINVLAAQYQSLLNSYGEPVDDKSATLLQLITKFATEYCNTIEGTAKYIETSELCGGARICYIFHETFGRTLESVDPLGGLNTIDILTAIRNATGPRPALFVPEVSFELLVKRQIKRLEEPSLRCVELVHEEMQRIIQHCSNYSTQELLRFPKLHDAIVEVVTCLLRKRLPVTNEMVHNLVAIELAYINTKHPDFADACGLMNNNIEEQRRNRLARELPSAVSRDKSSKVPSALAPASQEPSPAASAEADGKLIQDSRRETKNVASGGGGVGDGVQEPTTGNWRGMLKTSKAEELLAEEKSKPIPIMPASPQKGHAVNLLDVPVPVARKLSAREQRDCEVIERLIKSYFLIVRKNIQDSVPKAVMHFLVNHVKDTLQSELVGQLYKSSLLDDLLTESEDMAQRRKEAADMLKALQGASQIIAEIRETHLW

Row | Binder | binding result [1] | also measured
1 | D49 (VHH) VHH: EVQLVESGGGWVQPGGSLRLSCSASGFTFRDYVMTWVRQTPGRGLEWVSAIDGSGSKINYLDSVKGRFTISRDNTQAMLYLQMNSLRPDDTAVYYCARKGRGGLGEGTYWGKGTQVTVSS | binds | –
2 | D187 (VHH) VHH: HVQLVESGGGLVQAGESLKLSCVASGIPFSSRAMGWYRQTPGKDRELVARISVRGVTFYADSVTGRFAISRDNDRSTLYLQMNSLKSEDTAIYFCAAGDNTQTVLTRPAHWGQGTQVTVSS | binds | –
3 | D193 (VHH) VHH: EVQLVDSGGGLVQSGGSLTLACAASVSIDEFPAMTWYRQATGKQRELVGVITKGGATKLADSAKGRFTISRDNAKNMVYLQMTSLKPDDTAVYYCSVPNKVMGWGPDDWWGQGSQVTVSS | binds | –
4 | D219 (VHH) QVQLVESGGGMVQSGGSLSLSCAASGFAFSLYEMSWIRQAQGRGPEWVASINPGSSRTYYTDSVKGRFTISRDNDKNILYLKMNSLKPEDTALYYCARGRTLGIGISSDKGSQVTVSS | binds | –
5 | D246 (VHH) VHH: EVQLVESGGGLAQPGGSLRLSCAASGPTDNIYTMGWYRQPPGQSRQFVASVVWSTGVKAYAKFVGGRFRITKDSAKRTVDLQMDSLQPEDTAIYFCNLNDRVTPMSERDYWGQGTPVTVSS | binds | –
6 | D258 (VHH) VHH: EVQLQESGGESVQPGGSLRLSCVVSGTTFSTVAMGWYREVPGKKRELVARISSRGVTFYSDSVEGRFTISKDNDKSTLYLQMNSLETEDTAMYFCAAAGNSEVVLFRPKYWGQGTPVTVSS | binds | –
7 | Drp1-specific nanobody D7 (VHH, Selected by phage display from an immunised alpaca; also called D7 Nb; D7 nanotrap (immobilised on NHS-sepharose); source: E. coli periplasmic extract for the protein ELISA) VHH: QVQLVESGGGLVQPGGSLRLSCVASGFDFSTYSMTWHRQVLGKERELVASITPGGSRTNVADSVKGRFTISRDNAKNMLYLQMDRLKPEDTGMYYCAQGGYYAEPDYWGKGTRVTVSS | – | binding result [2]: binds; binding result [3]: binds; binding result [4]: binds; binding result [5]: binds
8 | Drp1-specific nanobody D63 (VHH, Selected by phage display from an immunised alpaca; also called D63 Nb; D63 nanotrap (immobilised on NHS-sepharose); source: E. coli periplasmic extract for the protein ELISA) VHH: QVQLVESGGDLVQPGGSLKLSCAVSGVSDSLSSFYLMAWHRQAPGKQREMIADIVSGKATYADSVKGRFTISRDNAENTAYLQMNSLKPEDTAVYYCNVLIQNRSTFQSYWGQGTQVTVSS | – | binding result [5]: binds
